# Assay results taken from the RNAGym collection of RNA variant scans (doi:10.1073/pnas.2313332121).
# This sample holds only a part of the variants without activity.
# B1: TPR 5TU (parent)
# chain: GGAUCUUCUCGAUCUAACAAAAAAGACAAAUCUGCCACAAAGCUUGAGAGCAUCUUCGGAUGCAGAGGCGGCAGCCUUCGGUGGCGCGAUAGCGCCAACGUUCUCAACUAUGACACGCAAAACGCGUGCUCCGUUGAAUGGAGUUUAUCAUG
# Variants of: B1
# Assay: polymerase ribozyme fitness, log enrichment relative to wild type (log ratio); higher = more active; in vitro selection for triplet polymerase activity
# Outline: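 After PCR construction and transcription, each subunit's mutant library from a heterodimeric triplet polymerase ribozyme was annealed with a biotinylated primer, the partner subunit and triplets. Incubation was frozen, at −7 °C, and extended constructs were gel-excised, bound to streptavidin beads and amplified by RT-PCR, in one selection round done in triplicate. Fitness is the logarithm of a genotype's enrichment divided by that of the wild type, from inverse-variance-weighted replicate averages of Illumina-sequenced inputs and outputs. The base of the logarithm is 2, and genotypes needed ≥10 input reads and ≥1 read per output.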
row,Variant,polymerase ribozyme fitness (log ratio)
1,GGAUCUUCUCGAUUUAACGAAAAAGACAAACCUGCCACCAAGCUUGAGAACAUCUUCGGAUGCAGUGUCGGCAGCCUUCGGUGGCGCGAUAGGGCCAACGUUCUCAACUAUGACACGCAAAACGCGUGCUCCGUUGAAUGGAGUUUAUCAUG,≤ -4.2
2,GGAUCUUCUCGAUGUAACAAAAAAGACAAAUCUGCCACAAAGCGUGAGAGCAACUUCGGAUGCAGAGGCGGCAGACUUCGGUGGCGCGACAGUGCCAACGUUCUCAACUAUGACACGCAAAACGCGUGCUCCGUUGAAUGGAGUUUAUCAUG,≤ -4.2
3,GGAUCUUCUCGAUGUAACAAAAAAGACAAAUCUGCCACAAAGCUUGAGAUCAUCUUCGGAUGCAGAGGCGGCAGCCUUCGGUGGCGUGAUAGCGCAAACGUUCUCAACUAUGACACGCAAAACGCGUGCUCCGUUGAAUGGAGUUUAUCAUG,-4.12
4,GGAUCUUCUCGAUGUAACAAAAAAGACAAAUCUGCCACAAAGCUUGAGAGCAUCUACGGAUGCAGAGGCGGCAGCCUUCGGUGGCGCGAUAGCGCUAACGUUCUCAACUAUGACACGCAAAACGCGUGCUCCGUUGAAUGGAGUUUAUCAUG,-3.43
5,GGAUCUUCUCGAUGUAACAAAAAAGACAAAUCCGCCACAAAGCUUGAGAGCAUCUUCGGAUGCAGAGGCGGCAGCCUUCGGUGGCGAGAUCGCGCCAACGUUCUCAACUAUGACACGCAAAACGCGUGCUCCGUUGAAUGGAGUUUAUCAUG,≤ -4.2
6,GGAUCUUCUCGAUGGAACAAAAAAGACAAUUCUGCCACAAAGCUUGAGAGCAUCUUCGGAUGCAGAGGCGGCAGCCUUCGGUGGCGCGAUGGCGCCAACGUUCUCAACUAUGACACGCAAAACGCGUGCUCCGUUGAAUGGAGUUUAUCAUG,≤ -4.2
7,GGAUCUUCUCGAUGUAACAAAAAAGACAAAUCUGCCACAAAGCUUGAGAGCAUCUUCGGAUGCAGAGGCGGCAGCCUUCGGUGGCGCGAUAGCGCCAACGUUCUCAACUAUGACACGCAAAACGCGUGCUCCGUUGAACGGAGUUUAUCAUG,≤ -4.2
8,GGAUCUUCUCGAUGUAACAAAAAAGACAAAUCUGCCACAAAGCUUGAGAGCAUCUUCGGAUGCAGAGGCGGCAGCCUUCGGUGGCGCGAUACCGCCAACGUUCUCAACUAUGACACGCAAAACGCGUGCUCCGUUGAAUGGAGUUUAUCAUG,-2.66
9,GGAUCUUCUCGAUGUAACAAAAAAGACAAAUCUGCCACAAAGCUUGAGAGCAUCUUCGGAUGCAGAGGCGGCAGCCUUCGGUGGCGCGAUAACGCCAACGUUCUCAACUAUGACACGCAAAACGCGUGCUCCGUUGAAUGGAGUUUAUCAUG,-4.15
10,GGAUCUUCUCGAUGCAACAAAAAAGACAAAUCUGCCACAAAGCUUGAGAGCAUCUUCGGAUGCAGAGGCGGCAGCAUUCGGUGGGGCGAUAGCGCCAACGUUCUCAACUAUGACACGCAAAACGCGUGCUCCGUUGAAUGGAGUUUAUCAUG,-3.78
11,GGAUCUUCUCGAUGUAACAAAAAAGACAAAUCUGCCACAAAGCUUGAGAGCAACUUCGGAUGCAGAGGCGGCAGCCUUCGGUGGCGCGAUAGCACCAACGUUCUCAACUAUGACACGCAAAACUCGUGCUCCGUUGAAUGGAGUUUAUCAUG,-3.37
12,GGAUCUUCUCGAUGUAACAAAAAAGACAAAUCUGCCACAAAGCUUGAGAGCAUCUUCGGAAGCAGAGGCGGCAGCCUUCGGUGGUGCGAUAGAGCCAACGUUCUCAAUUAUGACUCGCAAAACGCGUGCUCCGUUGAAUGGAGUUUAUCAUG,≤ -4.2
13,GGAUCUUCUCGAUGUAACAAAAAAGACAAAUCUGCCACAAAGCUUGAGAGCAACUUCGGAUGCAGAGGCGGCAGCCUUCGGUGCCGCGAUAUCGACAACGUUCUCAGCUAUGACACGCUAAACGCGUGCUCCGUUGAAUGGAGUUUAUCAUG,≤ -4.2
14,GGAUCUUCUCGAUGUAACAAAAAAGACAAAUCUGCCACAAAGCUUGAGAUCAUCUUCGGAUGCAGAGGCGGCAGCCUUCGGUGGCGAGAUAGCGCCAACGUUCUCAACUAUCACACGCAAAAUGCGUGCUCCGUUGAAUGGAGUUUAGCAUG,≤ -4.2
15,GGAUCUUCUCGAUGUAACAAAAAAGACAAAUCUGCCACAAAGCUAGAGAGCAUCUUCGGAUGCAGAGGCGGCAGCCUUUGGUGGCGCAAUAGCGCCAACGUUCGCAACUAUGUCACGCAAAACGCGUGCUCCGUUGAAUGGAGUUUAUCAUG,-4.17
16,GGAUCUUCUCGAUGUAACAAAAAAGACAAAUCUGCCACAAAGCUUGAGAGCAGCUUCGGAUGCAGAGGCGGCAGCCGUCGGUGGCGCGAUUGCGCCAACGUUCUCAACUAUGACACGCAAAACGCGUGCUCCGUUGAAUGGAGUUUAUCAUG,≤ -4.2
17,GGAUCUUCUCGAUUUAACAAAGAAGACAAAUCUGCCACGAAGCUUGAGAGCAUCUUCGGAUGCAGAGGCGACAGCCUUCGGUGGCGCGAUAGUGCCAACGUUCUCAACUAUGACACGCAAAACGCGUGCUCCGUUGAAUGGAGUUUAUCAUC,≤ -4.2
18,GGAUCUUCUCGAUUUAACCAAAAAGACAAAUCUGCCACAAAGCUAGAGAGCAUCUUCGGAUGCAGAGGCGGCAGCCUUCGGUGACGCGAUAGCGCAAACGUUCUCAACCAUGACACGCAAAACGCGUGCUCCGUUGAAUGGAGUUUAUCAUG,≤ -4.2
19,GGAUCUUCUCGAUGUAACAAAAAAGACAAAUCUGCCACAAAGCUUGAGAUCAUCUGCGCAUGCAGAGGCGGCAGCCUUCGGUGGCGCGAUAGCGCCAACGUUCUCAAUUAUGACACGCAAAACGCGUGCUCCGUUGAAUGGAGUUUAUCAUG,≤ -4.2
